Measurements published in US20210214440A1 (Janssen / Centocor, published 2021).
Changes are numbered by the printed parent chain.

B1: CD8B268 (antibody, human IgG1, kappa, V domains shown)
VH: QVQLQQSGAELVKPGASVKLSCKASGYTFTVYTIHWVKQRSGQGLEWIGWFYPGSGNIKYNEKFKDKATLTADKSSHTVYMELSRLTSEDSAVYFCARHEDNHYYDGNSWFAYWGQGTLVTVSA
VL: DIQMTQSPASLSASVGQTVTITCRASGNIHNYLAWFQQKQGKSPQLLVYNAKTLADGVPSRFSGSGSGTQYSLKINSLQTEDFGNYYCQHFWNTPYTFGGGTKLEIKR
notes: full-length human IgG1, kappa
B2: CD8B350 (antibody, human IgG1, kappa, V domains shown)
VH: EVQLQQSGAELAKPGTSVKMSCKASGYTFAAYWINWLKQRPGQGLEWIGSINPSNGYTEYSQKFKDKAILTADKSSSTAYMQLSSLTSEDSAVYYCSRSGLYYTNHLAWCPYWGQGTTVTVSS
VL: B1 VL with Q3V, Q17E, F36Y, L46V, K52E, G57S, Y71F, T80P, T94S, Y96L
notes: full-length human IgG1, kappa
B3: CD8B273 (antibody, human IgG1, kappa, V domains shown)
VH: B1 VH with V31E, S55T, N57S, R85K
VL: B1 VL with Q17E, T80A, N85S, N93S, G100S
notes: full-length human IgG1, kappa
B4: CD8B364 (antibody, human IgG1, kappa, V domains shown)
VH: QVQLQQPGAELVKPGASVKLSCKASGYTFTSYWMHWVNRRPGQGLEWIGEINPSNGDSYYNEKFKRKATLTVDISSSTAYMQLSSLTSEDSAVYYCTRSMYYDGRAGAYWGQGTTVTVSS
VL: DIVLTQSPASLSVATGEKVTIRCITSTDIDDDMNWYQQKPGEPPKLLISEGNTLRPGVPSRFSSSGYGTDFVFTIENTLSEDVADYYCLQSDNMPLTFGAGTKLELKR
notes: full-length human IgG1, kappa
B5: CD8B356 (antibody, human IgG1, kappa, V domains shown)
VH: DVQLQESGPGLVKPSQSLSLTCSVTGYSITSGYYWNWIRQFPGNKLEWMGYISYDGSNNYNPSLKNRISITRDTSKNQFFLKLNSVTTEDTATYYCVRNHGDAMDYWGQGTSVTVSS
VL: DIVLTQSQKFMSTTVGDRVSITCKASQNVGTAVAWYQQKPGQSPKLLIYSASYRYTGVPDRFTGSGSGTHFTLTISNMQSEDLADYFCQQYSSYLTFGSGTKLEIKR
notes: full-length human IgG1, kappa
B6: CD8B319 (antibody, human IgG1, kappa, V domains shown)
VH: QVQLKESGPELKKPGETVKISCKASGYSFTAYYMHWVKQSPEKSLEWIGEINPSAGGTTYNQKFKAKATLTVDKSSSTAFIQLKSLTSEDSAVYYCARWTNPFDYWGQGTTLTVSS
VL: B5 VL with L4M, M78I, S92N, S93N
notes: full-length human IgG1, kappa
B7: CD8B269 (antibody, human IgG1, kappa, V domains shown)
VH: B5 VH with Y106H, S112T, V113L
VL: DIVMTQSQKFMSTSVGDRVRVTCKASQNVGTDVAWYQQKPGQSPKALIYSASYRYSGVPDRFTGSGSGTDFTLTISDVQSEDLAEYFCQQYKSYPLTFGAGTKLELKR
notes: full-length human IgG1, kappa
B8: CD8B271 (antibody, human IgG1, kappa, V domains shown)
VH: DVQLQESGPGLVAPSQSLSITCTVSGFSLSIYSIHWVRQPPGKGLEWLGMIWGGGDTDYNSALKSRLSISKDNSESQVFLKMNSLQTDDTAMYYCARNPHYYGGTYEYFDVWGTGTTVTVSS
VL: DIQMTQTTSSLSASLGDRVTISCSASQGISNYLNWYQQKPDGTVKLLIYDTSILYSGVPSRFSGSGSGTDYSLTISNLEPEDVATYYCQQYSNLPYTFGSGTKLEIKR
notes: full-length human IgG1, kappa
B9: CD8B347 (antibody, human IgG1, kappa)
heavy: not shown
light: DIQMTQSPASLSASVGETVTITCRASGNIHNYLAWYQQKQGKSPQLLVFNAETLADGVPSRFSGSGSGTQFSLKINSLQPEDFGTYYCQHFWNNPLTLGAGTKLELKRTVAAPSVFIFPPSDEQLKSGTASVVCLLNNFYPREAKVQWKVDNALQSGNSQESVTEQDSKDSTYSLSSTLTLSKADYEKHKVYACEVTHQGLSSPVTKSFNRGEC
notes: full-length human IgG1, kappa
B10: CD8B182 (antibody, human IgG1, kappa, V domains shown)
VH: EVQLQQSGAALAKPGTSVKMSCKASGYTFTSYWMNWVRQRPGQGLEWIGAVNPTNYYTEYIQKFKDKAILTADKSSSTAYMHLSGLTSEDSAVYYCARSGLYNTNHLAWFAYWGQGTTVTVSS
VL: DIKMTQSPASLSASVGETVTITCRASENIHNYLAWYQQIQGKSPQLLVYNAKTLANGVPSRFSGSASGTQFSLTINSLQPEDFGSYYCQHFWTTPLTFGAGTKLELKR
notes: full-length human IgG1, kappa
B11: CD8B240 (antibody, human IgG1, kappa)
heavy: not shown
light: DIVMTQSPATLSVTPGDRVSLSCRASQSISDFLHWYQQKSHESPRLLIKYASQSISGIPSRFSGSGSGSDFTLTINSVEPEDVGVYYCQNGHSFPYTFGSGTKLEIKRTVAAPSVFIFPPSDEQLKSGTASVVCLLNNFYPREAKVQWKVDNALQSGNSQESVTEQDSKDSTYSLSSTLTLSKADYEKHKVYACEVTHQGLSSPVTKSFNRGEC
notes: full-length human IgG1, kappa
B12: CD8B191 (antibody, human IgG1, kappa)
heavy: not shown
light: B11 light with M4L
notes: full-length human IgG1, kappa
B13: CD8B213 (antibody, human IgG1, kappa, V domains shown)
VH: EVQLQQSGPELVKPGDSMKMSCKASGYIFTDYYMDWVKQSHGKSLEWIGYIYPNNGITSYNQKFKGRATLTIDKSSSTAYMELHSLTSEDSAVYYCARSIYYDHGGGFPYWGQGTSVTVSS
VL: DIVLTQSQKFMSTSVGDRVSVTCKASQNVDKYVAWYQQKPGQSPKALIYSASYRYSGVPDRFTGSGSGTDFTLTISNVQSEDLAEYFCQQYNTYPSFGSGTKLEMKR
notes: full-length human IgG1, kappa
B14: CD8B361 (antibody, human IgG1, kappa, V domains shown)
VH: EVQLQQSGPELVKPGNSVKMSCKASGYTFTDYYMDWVKQSHGTSLEWIGYIYPNNGDTRYNQKFKDKATLTVDKSSSTAYMELHSLTSEDSAVFYCARSIYYDHGGGFPYWGQGTLVTVSA
VL: B13 VL with L4M, D30G, K31T, S76N, F87L, T93S, S96T, S99G, K102R, M105I
notes: full-length human IgG1, kappa
B15: CD8B200 (antibody, human IgG1, kappa, V domains shown)
VH: EVQLQQSGAELVKPGASVKLSCKASGYTFTNYWIHWVKQRPGQGLEWIGNIDPSDSETHYNQKFKDKATLTVDKSSSTAYMQLISLTSEDSAVYYCASGLTGTGYYWGQGTTLTVSS
VL: DIQMTQTTSSLSASLGDRVTITCRASQDISPYLNWYQQKPEGTIKLLIYYTSKLHSGVPSRFSGSGSGTDYSLTISNLEQEDIATYFCQQDNTLPYTFGSGTKLELKR
notes: full-length human IgG1, kappa
B16: CD8B246 (antibody, human IgG1, kappa, V domains shown)
VH: QVQLKESGPGILKPSQTLSLTCSFSGFSLSTSGMNVGWIRQPSGKGLEWLAHIWWDDDKYYNPSLKSQLTISKDTSRNQVFLKITSVDTADTATYYCARRGNYGNYEFAYWGQGTTLTVSS
VL: B15 VL with T22S, S30R, P31N, E41D, I44V, Y50H, K53R, D91G, Y96W, S100A
notes: full-length human IgG1, kappa
B17: CD8B304 (antibody, human IgG1, kappa, V domains shown)
VH: B16 VH with Q3T, L117V
VL: DIQMTQTTSSLSASLGDRVTISCRASQDIRNYLNWYQQKPDGTVKLLIYHTSRLHSGVPSRFSGSGSGTDYSLTISNLDQEDIATYFCQQGNTLPWTFGAGTKLELKR
notes: full-length human IgG1, kappa
B18: CD8B270 (antibody, human IgG1, kappa, V domains shown)
VH: B15 VH with E1Q, S7P, K19M, I34M, I84S
VL: B15 VL with S30R, Y50F
notes: full-length human IgG1, kappa
B19: CD8B251 (antibody, human IgG1, kappa, V domains shown)
VH: QVQLKGSGPGLVQPSQSLSITCTVSGFSLTTYAVHWVRQSPGKGLEWLGVIWSGGSTDYNAAFISRLSISKDNSKSQVFFKMNSLQADDTAIYYCARHSYYHYNAMDNWGQGTSVTVSS
VL: DIKMTQSQKFMSTTVGDRVSITCKASQNVGTAVAWYQQKPGQSPKLLIYSASNRYTGVPDRFTGSGSGTDFTLTISNMQSEDLADYFCQQYSSYPFTFGSGTKLEIKR
notes: full-length human IgG1, kappa
B20: CD8B324 (antibody, human IgG1, kappa, V domains shown)
VH: QVQLQQPGADLVKPGASVKLSCKASGYTSTSHWIHWVKQRPGQGLEWIGNIYPGSSSTNYNEKFKRMATLTVDTSSSTVYMVLSSLTSDDSAVYYCARHSPGHRDYAMDYWGLGTSVTVSS
VL: B19 VL with K3V, S12P, Y49A, N77T, S93T, F96L, S100A, I106M
notes: full-length human IgG1, kappa
B21: CD8B312 (antibody, human IgG1, kappa, V domains shown)
VH: QVQLQQPGADLVKPGASVKLSCKASGYTFTSFWMHWVKQRPGQGLEWIGNVDPSDSQTHYNQKFKDKATLTVDKSSNTAYMQLSSLTSEDSAVYYCARSTYYRYDGPFTYWGQGTTVTVSS
VL: DIVLTQSPATLSVTPGDSVSLSCRASQSINNNLHWYQQKSHESPRLLIKYTSQSISGIPSRFSGSGSGPDFTLSINSVETEDFGMYFCQQSNSWPLTFGGGTKLEIKR
notes: full-length human IgG1, kappa
B22: CD8B310 (antibody, human IgG1, kappa, V domains shown)
VH: QVQLKESGPGLVAPSQSLSITCTVSGFSLTNYAVHWVRQSPGKGLEWLGVIWTDGSTDYNAGFISRLSISKDNSKSQVFFKMNSLQADDTAIYYCARNNGYFPAFFAYWGQGTTVTVSS
VL: DVLMTQTPLSLPVSLGDQASISCRSSQTIVHSNGNTYLEWYLQKPGQSPKLLMYKVSNRFSGVPDRFGGSGSGTDFTLKISRVEAEDLGVYYCFQGSHAPFTFGSGTKLEIKR
notes: full-length human IgG1, kappa
B23: CD8B303 (antibody, human IgG1, kappa, V domains shown)
VH: QVQLKESGPGLVAPSQSLSITCTVSGFSLSIYSIHWVRQPPGKGLEWLGMIWGGGSTDYNSTLNSRLSIIKDNSKSQVFLKMNSLQTDDTAMYYCARNPHHYGGSTGAMDYWGQGTTVTVSS
VL: DVQMIQSPSSLSASLGGTVTITCKASQDIKKYMAWYQHKPGKGPRLLIHYTSSLQPGIPSRFSGSGSGRDYYFSISNLEPEDIATYFCLQYDNLFTFGSGTKLELKR
notes: full-length human IgG1, kappa

Biological target: T1, human CD8 on human pan T cells (human, UniProt P01732 22-235; P10966 22-210)
T1 construct: Native CD8 on the CD4-negative population of human pan T cells
Experiment: flow cytometry, 20 nM mAb on human pan T cells
Protocol: Secondary antibodies were A647-conjugated goat anti human IgG Fc antibody at 2 μg/mL, and A488-conjugated mouse anti-human CD4 at 1 μg/mL in staining buffer. Live cells were also gated based on OKT8 control mAb binding. Percent CD8 positive population was calculated by percentage of CD8-positive cell count/live cell count.

T1 sequence (P01732 22-235, chain 1 of 2): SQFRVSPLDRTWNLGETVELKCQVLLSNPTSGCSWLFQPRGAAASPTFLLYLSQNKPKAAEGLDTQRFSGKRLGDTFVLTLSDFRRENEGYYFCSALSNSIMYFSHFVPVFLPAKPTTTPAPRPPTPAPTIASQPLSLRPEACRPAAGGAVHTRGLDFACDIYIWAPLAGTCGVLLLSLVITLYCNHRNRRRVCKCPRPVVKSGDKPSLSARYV
T1 sequence (P10966 22-210, chain 2 of 2): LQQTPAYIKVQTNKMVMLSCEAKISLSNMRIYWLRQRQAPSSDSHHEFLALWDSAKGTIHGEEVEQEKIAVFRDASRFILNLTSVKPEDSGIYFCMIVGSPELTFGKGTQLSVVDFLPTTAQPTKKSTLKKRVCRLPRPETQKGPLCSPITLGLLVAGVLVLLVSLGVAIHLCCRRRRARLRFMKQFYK

| Binder | Cell Binding to Human PanT Signal/Background (of CD4 negative population) |
| --- | --- |
| B1 | 1170 |
| B2 | 537 |
| B3 | 938 |
| B4 | 1560 |
| B5 | 777 |
| B6 | 16 |
| B7 | 26 |
| B8 | 911 |
| B9 | 1200 |
| B10 | 1490 |
| B11 | 1310 |
| B12 | 2440 |
| B13 | 827 |
| B14 | 1050 |
| B15 | 1990 |
| B16 | 1110 |
| B17 | 923 |
| B18 | 2500 |
| B19 | 37 |
| B20 | 1610 |
| B21 | 1090 |
| B22 | 29 |
| B23 | 1180 |
